Experiment [1] concerns the target T1, recombinant biotinylated CD71 extracellular domain (Sino Biologics) with an N-terminal 6His tag (human, UniProt P02786 89-760, biotinylated (site not stated)).
T1 construct: extracellular domain; also called hCD71; huCD71 ECD
The experiment in a line: primary solution ELISA screen, signal on hCD71 over HSA. A general note: In an ELISA, binding on a coated surface is turned into a signal by an enzyme label.

For experiment [2], the target named is T1, recombinant biotinylated CD71 …. Description: primary solution ELISA screen.

Numbering of substitutions follows the chain as printed.

T1 sequence (P02786 other isoform, or with tags, fused parts or gaps): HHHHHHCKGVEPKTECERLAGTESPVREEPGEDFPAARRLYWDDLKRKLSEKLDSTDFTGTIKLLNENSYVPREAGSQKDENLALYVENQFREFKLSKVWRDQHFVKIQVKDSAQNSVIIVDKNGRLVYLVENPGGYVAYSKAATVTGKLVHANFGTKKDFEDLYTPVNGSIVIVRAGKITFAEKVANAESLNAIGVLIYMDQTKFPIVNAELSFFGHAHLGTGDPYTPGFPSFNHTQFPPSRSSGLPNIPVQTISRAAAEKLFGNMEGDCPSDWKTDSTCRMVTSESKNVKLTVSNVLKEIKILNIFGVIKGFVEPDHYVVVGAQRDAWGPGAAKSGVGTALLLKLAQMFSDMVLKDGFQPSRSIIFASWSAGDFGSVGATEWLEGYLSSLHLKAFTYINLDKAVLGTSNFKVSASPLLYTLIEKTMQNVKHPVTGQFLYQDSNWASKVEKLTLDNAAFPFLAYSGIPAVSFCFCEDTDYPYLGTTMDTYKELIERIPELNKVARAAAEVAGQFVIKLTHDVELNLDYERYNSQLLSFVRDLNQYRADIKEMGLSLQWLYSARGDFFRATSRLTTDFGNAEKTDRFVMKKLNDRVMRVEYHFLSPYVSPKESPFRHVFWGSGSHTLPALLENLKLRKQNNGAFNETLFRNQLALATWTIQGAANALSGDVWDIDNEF

B1: SEQ ID NO 38 (designed binder, not shown: small tags and cut ends)
chain: MLPAPKNLVVSRVTEDSARLSWTAPDAAFDSFPILYLEHTVRSEAIVLTVPGSERSYDLTDLKPGTEYCVPIDGVKGGLRSRPLSAIFTT
notes: FN3 domain, hit of the apical domain panning
For the molecule B1, in experiment [1], the “hCD71:HSA” value amounted to 63. Moreover, the RLU in experiment [2] is 518000 RLU.

B2: SEQ ID NO 39 (designed binder, not shown: small tags and cut ends)
chain: MLPAPKNLVVSRVTEDSARLSWTAPDAAFDSFPIPYTEPPDPGEAIVLTVPGSERSYDLTGLKPGTEYLVTILGVKGGSMSVPLSAIFTT
notes: as for B1
Consider B2, for which the “hCD71:HSA” value in experiment [1] stood at 29. For the same molecule, the RLU in experiment [2] was found to be 1.48e+06 RLU.

B3: SEQ ID NO 19 (designed binder, not shown: small tags and cut ends)
chain: MLPAPKNLVVSRVTEDSARLSWTAPDAAFDSFAITYTEAALCGEAIVLTVPGSERSYDLTGLKPGTEYPVPINGVKGGGTSGPLSAIFTT
notes: as for B1
Turning to B3, in experiment [1], the “hCD71:HSA” value was 53. The RLU in experiment [2] was 956000 RLU.

B4: SEQ ID NO 18 (designed binder, not shown: small tags and cut ends)
chain: B3 chain with A33N, T35M, T37H, A39I, A40I, L41Y, C42V, N73E
notes: as for B1
For the molecule B4, the “hCD71:HSA” value in experiment [1] amounted to 79. The RLU in experiment [2] was found to be 828000 RLU.

B5: SEQ ID NO 17 (designed binder, not shown: small tags and cut ends)
chain: B3 chain with A33P, T35L, A39C, A40V, L41Y, C42R, P69H, N73T, T80G, G82W
notes: as for B1
On to B5, for which, in experiment [1], the “hCD71:HSA” value came to 61. Moreover, the RLU in experiment [2] came out at 221000 RLU.

B6: SEQ ID NO 43 (designed binder, not shown: small tags and cut ends)
chain: MLPAPKNLVVSRVTEDSARLSWTAPDAAFDSFMIVYYEYTRFGEAIVLTVPGSERSYDLTGLKPGTEYTVPIDGVKGGGRSSPLSAIFTT
notes: as for B1
As for B6, the “hCD71:HSA” value in experiment [1] stood at 36. For the same molecule, in experiment [2], the RLU is 772000 RLU.

B7: SEQ ID NO 34 (designed binder, not shown: small tags and cut ends)
chain: B3 chain with A33Y, T37V, A39L, A40N, C42A, N73L, G79S, T80L, G82Q
notes: as for B1
For B7, the “hCD71:HSA” value in experiment [1] was determined as 195. The RLU in experiment [2] stood at 1.58e+06 RLU.

B8: SEQ ID NO 72 (designed binder, not shown: small tags and cut ends)
chain: MLPAPKNLVVSRVTEDSARLSWTAPDAAFDSFTIGYREWYWYGEAIVLTVPGSERSYDLTGLKPGTEYNVPISGVKGGLDSFPLSAIFTT
notes: as for B1
Consider B8, for which, in experiment [1], the “hCD71:HSA” value was 38. The RLU in experiment [2] worked out at 338000 RLU.

B9: SEQ ID NO 56 (designed binder, not shown: small tags and cut ends)
chain: MLPAPKNLVVSRVTEDSARLSWTAPDAAFDSFSIGYVELVLLGEAIVLTVPGSERSYDLTGLKPGTEYDVLIPGVKGGSLSRPLSAIFTT
notes: as for B1
Regarding B9, the “hCD71:HSA” value in experiment [1] was 99. Besides, in experiment [2], the RLU turned out to be 1.92e+06 RLU.

B10: SEQ ID NO 13 (designed binder, not shown: small tags and cut ends)
chain: B3 chain with A33L, T35A, T37P, A39D, A40G, L41F, C42R, N73L, T80G
notes: as for B1
Consider B10, for which the “hCD71:HSA” value in experiment [1] came out at 70. Further, the RLU in experiment [2] is 1.73e+06 RLU.

B11: SEQ ID NO 88 (designed binder, not shown: small tags and cut ends)
chain: B6 chain with M33P, V35K, Y37R, Y39V, T40L, F42C, D73T, G79F, R80G
notes: as for B1
Consider B11, for which the “hCD71:HSA” value in experiment [1] worked out at 21. In experiment [2], the RLU is 515000 RLU.

B12: SEQ ID NO 30 (designed binder, not shown: small tags and cut ends)
chain: B3 chain with A33I, T35H, T37V, A39Q, A40Q, C42I, N73T, G79A, T80C, G82W
notes: as for B1
In the case of B12, the “hCD71:HSA” value in experiment [1] came to 46. The RLU in experiment [2] turned out to be 205000 RLU.

B13: SEQ ID NO 33 (designed binder, not shown: small tags and cut ends)
chain: B8 chain with T33G, G35A, R37V, W39S, S73Y, L79D, D80G, F82G
notes: as for B1
In the case of B13, the “hCD71:HSA” value in experiment [1] came to 132. In addition, the RLU in experiment [2] was 271000 RLU.

B14: SEQ ID NO 47 (designed binder, not shown: small tags and cut ends)
chain: B6 chain with M33G, Y37L, Y39M, T40M, R41V, F42T, T69D, D73L, G79T, S82V
notes: as for B1
For B14, in experiment [1], the “hCD71:HSA” value was 98. Moreover, the RLU in experiment [2] worked out at 1.99e+06 RLU.

B15: SEQ ID NO 12 (designed binder, not shown: small tags and cut ends)
chain: MLPAPKNLVVSRVTEDSARLSWTAPDAAFDSFFIPYAEPSPTGEAIVLTVPGSERSYDLTGLKPGTEYSVLIHGVKGGHLSDPLSAISTT
notes: as for B1
As for B15, the “hCD71:HSA” value in experiment [1] stood at 25. The RLU in experiment [2] was determined as 1.24e+06 RLU.

B16: SEQ ID NO 99 (designed binder, not shown: small tags and cut ends)
chain: B15 chain with A86V, S88F
notes: as for B1
Take B16: the “hCD71:HSA” value in experiment [1] turned out to be 45. Besides, the RLU in experiment [2] stood at 440000 RLU.

B17: SEQ ID NO 49 (designed binder, not shown: small tags and cut ends)
chain: B15 chain with F33P, P35A, S40R, T42D, H79D, L80W, D82L, S88F
notes: as for B1
As to B17, the “hCD71:HSA” value in experiment [1] was 70. For the same molecule, in experiment [2], the RLU was 969000 RLU.

B18: SEQ ID NO 46 (designed binder, not shown: small tags and cut ends)
chain: B15 chain with F33I, P39V, S40R, T42D, H79K, D82L, S88F
notes: as for B1
Take B18: the “hCD71:HSA” value in experiment [1] came to 127. Besides, the RLU in experiment [2] is 1.04e+06 RLU.

B19: SEQ ID NO 42 (designed binder, not shown: small tags and cut ends)
chain: B15 chain with F33L, P39T, T42S, H79D, L80Y, D82E, S88F
notes: as for B1
Turning to B19, in experiment [1], the “hCD71:HSA” value was found to be 586. In experiment [2], the RLU turned out to be 586000 RLU.

B20: SEQ ID NO 65 (designed binder, not shown: small tags and cut ends)
chain: B15 chain with E15K, F33P, P35A, S40R, T42D, H79L, D82S, S88F
notes: as for B1
In the case of B20, in experiment [1], the “hCD71:HSA” value amounted to 60. In addition, in experiment [2], the RLU is 959000 RLU.

B21: SEQ ID NO 82 (designed binder, not shown: small tags and cut ends)
chain: B15 chain with F33L, P39T, T42S, H79D, L80Y, D82S, S88F
notes: as for B1
Consider B21, for which the “hCD71:HSA” value in experiment [1] came to 105. For the same molecule, in experiment [2], the RLU worked out at 1.56e+06 RLU.

B22: SEQ ID NO 64 (designed binder, not shown: small tags and cut ends)
chain: B15 chain with F33Y, P35V, S40I, T42N, H79R, L80N, S88F
notes: as for B1
Turning to B22, the “hCD71:HSA” value in experiment [1] was 218. Besides, the RLU in experiment [2] came out at 1.31e+06 RLU.

B23: SEQ ID NO 83 (designed binder, not shown: small tags and cut ends)
chain: B15 chain with F33P, P35A, S40R, T42D, H79L, D82S
notes: as for B1
For B23, the “hCD71:HSA” value in experiment [1] came out at 29. In experiment [2], the RLU stood at 3.26e+06 RLU.

B24: SEQ ID NO 57 (designed binder, not shown: small tags and cut ends)
chain: B15 chain with F33A, P39L, P41R, T42N, S69T, H79C, S88F
notes: as for B1
On to B24, for which the “hCD71:HSA” value in experiment [1] amounted to 29. The RLU in experiment [2] is 1.12e+06 RLU.

B25: SEQ ID NO 68 (designed binder, not shown: small tags and cut ends)
chain: B15 chain with F33I, P39V, S40R, T42D
notes: as for B1
Consider B25, for which the “hCD71:HSA” value in experiment [1] was 14. Also, the RLU in experiment [2] worked out at 521000 RLU.

B26: SEQ ID NO 77 (designed binder, not shown: small tags and cut ends)
chain: B15 chain with F33P, P35A, S40R, T42D, H79L, D82S, S88F
notes: as for B1
As to B26, the “hCD71:HSA” value in experiment [1] came out at 71. For the same molecule, in experiment [2], the RLU worked out at 739000 RLU.

B27: SEQ ID NO 44 (designed binder, not shown: small tags and cut ends)
chain: B15 chain with S88V
notes: as for B1
B27: in experiment [1], the “hCD71:HSA” value turned out to be 13. Besides, the RLU in experiment [2] was 715000 RLU.

B28: SEQ ID NO 40 (designed binder, not shown: small tags and cut ends)
chain: MLPAPKNLVVSRVTEDSARLSWTAPDAAFDSFTIDYWENRCPGEAIVLTVPGSERSYDLTGLKPGTEYCVWISGVKGGYSSWPLSAIFTT
notes: as for B1
As to B28, the “hCD71:HSA” value in experiment [1] is 16. In addition, the RLU in experiment [2] came out at 223000 RLU.

The record behind these values is US20220332795A1 (ARO BIOTHERAPEUTICS, published 2022).
